Holding throughout (assay): cell-based or functional assay
Experiment [1] has as its target HIV-1 Env of isolate ZM233 (clade C pseudovirus) (HIV-1).
The target in experiment [2] is HIV-1 Env of isolate THRO.18 (clade B pseudovirus) (HIV-1).
The target of experiment [3] is HIV-1 Env of isolate CAP45 (clade C pseudovirus) (HIV-1).
The target in experiment [4] is HIV-1 Env of isolate DU422 (clade C pseudovirus) (HIV-1).
Experiment [5] addresses HIV-1 JR-FL Env E168K (HIV-1 JR-FL).
Experiment [6] has as its target HIV-1 Env of isolate PVO.4 (clade B pseudovirus) (HIV-1).
For experiment [7], the target named is HIV-1 ADA Env (HIV-1 ADA).
Experiment [8] addresses HIV-1 Env of isolate ZM249 (clade C pseudovirus) (HIV-1).
Experiment [9] has as its target HIV-1 Env of isolate TR0.11 (clade B pseudovirus) (HIV-1).
The target of experiment [10] is HIV-1 Env of isolate CAAN (clade B pseudovirus) (HIV-1).
Experiment [11] deals with HIV-1 Env of isolate Du172 (clade C pseudovirus) (HIV-1).
Experiment [12] has as its target HIV-1 Env of isolate AC10 (clade B pseudovirus) (HIV-1).
In experiment [13] the target is HIV-1 Env of isolate DU156 (clade C pseudovirus) (HIV-1).
The target of experiment [14] is HIV-1 Env of isolate ZM214 (clade C pseudovirus) (HIV-1).
Experiment [15] has as its target HIV-1 92RW020 Env (HIV-1 92RW020).
Experiment [16] deals with MuLV envelope protein (control pseudovirus) (MuLV).
The target in experiment [17] is HIV-1 Env of isolate REJ04541 (clade B pseudovirus) (HIV-1).

Bounds are passed on as bounds.

B1: 1503_H05 (PG16) (TCN-119) (antibody, V domains shown)
VH: QEKLVESGGGVVQPGGSLRLSCLASGFTFHKYGMHWVRQAPGKGLEWVALISDDGMRKYHSDSMWGRVTISRDNSKNTLYLQFSSLKVEDTAMFFCAREAGGPIWHDDVKYYDFNDGYYNYHYMDVWGKGTIVTVSS
VL: QSALTQPASVSGSPGQTITISCNGTRSDVGGFDSVSWYQQSPGKAPKVMVFDVSHRPSGISNRFSGSKSGNTASLTISGLHIEDEGDYFCSSLTDRSHRIFGGGTKVTVLG
For the molecule B1, the IC50 (neutralization, TZM-bl pseudovirus assay) was below 0.01 µg/mL in experiment [1]; 4.12 µg/mL in experiment [2]; below 0.01 µg/mL in experiment [3]; 0.71 µg/mL in experiment [4]; 11 µg/mL in experiment [6]; below 0.01 µg/mL in experiment [8]. Also, the IC50 (neutralization, TZM-bl pseudovirus assay) was 4.3 µg/mL in experiment [9]; 13.5 µg/mL in [10]; below 0.01 µg/mL in experiment [11]; below 0.01 µg/mL in [12]; below 0.01 µg/mL in experiment [13]; above 25 µg/mL in experiment [14]. The figures for the IC50 (neutralization, TZM-bl pseudovirus assay) in experiment [16] and in experiment [17] were above 25 µg/mL and 0.22 µg/mL, respectively. Moreover, the figures for the IC50 (ug/ml), pseudovirus neutralization, TZM-bl assay in experiment [5], in experiment [7] and in [15] were 0.002 µg/mL, 0.003 µg/mL and 0.02 µg/mL, respectively.

B2: 1489_I13 (PG16) (TCN-120) (antibody, V domains shown)
VH: QEQLLESGGGVVQPGGSLRLSCLASGFTFHKYGMHWVRQAPGKGLEWVALISDDGMRKYHSNSMWGRVTISRDNSKNTLYLQFSSLKVEDTAMFFCAREAGGPIWHDDVKYYDFNDGYYNYHYMDVWGKGTTVTVSS
VL: QSALTQPASVSGSPGQTITISCNGTSSDVGGFDSVSWYQQSPGKAPKVMVFDVSHRPSGISNRFSGSKSGNTASLTISGLHIEDEGDYFCSSLTDRSHRIFGGGTKVTVLG
Regarding B2, the IC50 (neutralization, TZM-bl pseudovirus assay) is below 0.01 µg/mL in experiment [1]; 7.41 µg/mL in experiment [2]; below 0.01 µg/mL in experiment [3]; 1.87 µg/mL in experiment [4]; 20.6 µg/mL in experiment [6]; below 0.01 µg/mL in experiment [8]. Moreover, the IC50 (neutralization, TZM-bl pseudovirus assay) in [9] was 10.9 µg/mL; in experiment [10], 24.9 µg/mL; in [11] it was below 0.01 µg/mL; in [12], below 0.01 µg/mL; in experiment [13] it was below 0.01 µg/mL; in experiment [14] it was above 25 µg/mL. Also, the IC50 (neutralization, TZM-bl pseudovirus assay) is above 25 µg/mL in experiment [16] and 0.34 µg/mL in experiment [17]. The IC50 (ug/ml), pseudovirus neutralization, TZM-bl assay in experiment [5] is 0.005 µg/mL; in experiment [7], 0.008 µg/mL; in experiment [15], 0.03 µg/mL.

B3: 1469_M23 (PG16) (TCN-118) (antibody, V domains shown)
VH: QEKLVESGGGVVQPGGSLRLSCLASGFTFHKYGMHWVRQAPGKGLEWVALISDDGMRKYHSDSMWGRVTISRDNSKNTLYLQFSSLKVEDTAMFFCAREAGGPIWHDDVKYYDFNDGYYNYHYMDVWGKGTTVTVSS
VL: QSALTQPASVSGSPGQTITISCNGTRSDVGGFDSVSWYQQSPGRAPKVMVFDVSHRPSGISNRFSGSKSGNTASLTISGLHIEDEGDYFCSSLTDRSHRIFGGGTKLTVLG
Take B3: the IC50 (neutralization, TZM-bl pseudovirus assay) in experiment [1] was below 0.01 µg/mL; in experiment [2], 7.01 µg/mL; in experiment [3] it was below 0.01 µg/mL; in experiment [4], 0.97 µg/mL; in experiment [6], 21.2 µg/mL; in [8] it was below 0.01 µg/mL. The IC50 (neutralization, TZM-bl pseudovirus assay) was 7.52 µg/mL in [9]; 17.7 µg/mL in [10]; below 0.01 µg/mL in [11]; below 0.01 µg/mL in experiment [12]; below 0.01 µg/mL in experiment [13]; above 25 µg/mL in experiment [14]. Besides, the IC50 (neutralization, TZM-bl pseudovirus assay) in [16] was above 25 µg/mL; in experiment [17] it was 0.39 µg/mL. For the same molecule, the IC50 (ug/ml), pseudovirus neutralization, TZM-bl assay was determined as 0.005 µg/mL in [5], 0.005 µg/mL in experiment [7] and 0.05 µg/mL in [15].

B4: 1456_A12 (PG16) (TCN-117) (antibody, V domains shown)
VH: HEQLVEAGGGVVQPGGSLRLSCLASGFTFHKYGMHWVRQAPGKGLEWVALISDDGMRKYHSDSMWGRVTISRDNSKNTLYLQFSSLRVEDTAMFFCAREAGGPIWHDDVKYYDFNDGYYNYHYMDVWGKGTKVTVSS
VL: QSALTQPASVSGSPGQTITISCNGTSRDVGGFDSVSWYQQSPGKAPKVMVFDVSHRPSGMSNRFSGSKSGNTASLTISGLHIEDEGDYFCSSLTDRSHRIFGGGTKLTVLG
Regarding B4, the IC50 (neutralization, TZM-bl pseudovirus assay) is below 0.01 µg/mL in experiment [1]; 2.08 µg/mL in [2]; below 0.01 µg/mL in [3]; 0.36 µg/mL in [4]; 10.4 µg/mL in experiment [6]; below 0.01 µg/mL in experiment [8]. For the same molecule, the IC50 (neutralization, TZM-bl pseudovirus assay) in experiment [9] was 3.05 µg/mL; in [10], 10.6 µg/mL; in [11] it was below 0.01 µg/mL; in experiment [12] it was below 0.01 µg/mL; in experiment [13], below 0.01 µg/mL; in experiment [14], above 25 µg/mL. Moreover, the IC50 (neutralization, TZM-bl pseudovirus assay) was above 25 µg/mL in [16] and below 0.01 µg/mL in [17]. In addition, the IC50 (ug/ml), pseudovirus neutralization, TZM-bl assay in experiment [5] stood at 0.003 µg/mL; in [7], 0.005 µg/mL; in [15] it was 0.05 µg/mL.

The values above are taken from patent US20250320281A1.
